According to publication PMC7099064:
One block for each substance: values may come before it.

Legend:
Pin1 (HA-Pin1, GST-Pin1) [1] = molecular target: Pin1 (HA-Pin1, GST-Pin1) (UniProt Q13526); test: co-IP of HA-Pin1 with Myc-Kv4.2; details: reference: wild type; sites T607
Pin1 (HA-Pin1, GST-Pin1) [2] = molecular target: Pin1 (HA-Pin1, GST-Pin1) (UniProt Q13526); test: Affi-Gel peptide pulldown from lysate

- binding against the reference (Pin1 (HA-Pin1, GST-Pin1) [1]): weaker
Substance: Kv4.2 (Myc-Kv4.2; synthetic C-terminal peptides) (from UniProt Q9NZV8) T607A

- binding against the reference (Pin1 (HA-Pin1, GST-Pin1) [2]; reference: non-phospho peptide, sites T602): stronger
Substance: Kv4.2 (Myc-Kv4.2; synthetic C-terminal peptides) (from UniProt Q9NZV8) pT602 peptide

- binding against the reference (Pin1 (HA-Pin1, GST-Pin1) [2]; reference: non-phospho peptide, sites T602,T607): stronger
- binding against the reference (Pin1 (HA-Pin1, GST-Pin1) [2]; reference: pT607 peptide, sites T602): stronger
Substance: Kv4.2 (Myc-Kv4.2; synthetic C-terminal peptides) (from UniProt Q9NZV8) pT602, pT607 peptide

- binding against the reference (Pin1 (HA-Pin1, GST-Pin1) [2]; reference: non-phospho peptide, sites T607): stronger
Substance: Kv4.2 (Myc-Kv4.2; synthetic C-terminal peptides) (from UniProt Q9NZV8) pT607 peptide
